The target of experiment [1] is SHHN-E176A (N-terminal construct of human SHH with E176A, N-lipid containing, C-lipid lacking) (human). Kind of experiment: cross-linking.
Experiment [2] addresses SHH-E177A (mouse SHH with E177A, expressed from the targeted endogenous locus) (mouse). Kind of experiment: SDS-resistant cross-linked form on Western blot of tissue extract.

For “SHHN-E176A (N-terminal construct of human SHH with E176A, N-lipid containing, C-lipid lacking) (domain or fragment)”, the stoichiometry N (usually the number of molecules, sites or subunits per partner or assembly) in experiment [1] is 2.

For “SHH-E177A (mouse SHH with E177A, expressed from the targeted endogenous locus) (natural protein)”, in experiment [2], the stoichiometry N was found to be 2.

For the origin of these results see PMC6047533.
